Assay results: PMC9482650, “Quantitative fragmentomics allow affinity mapping of interactomes” (Nature Communications, 2022)

What was measured:
Experiment in all cases: holdup assay
Parameters in all cases: key: below the threshold = too weak to quantify, mostly under pKd 3.1 to 4
Inadl_10, Q8NI35 = biological target: Inadl_10, Q8NI35
GRIP2_5, Q9C0E4 = biological target: GRIP2_5, Q9C0E4
LNX1_1, Q8TBB1 = biological target: LNX1_1, Q8TBB1
MAGI3_2, Q5TCQ9 = biological target: MAGI3_2, Q5TCQ9
PICK1, Q9NRD5 = biological target: PICK1, Q9NRD5
DLG5_1, Q8TDM6 = biological target: DLG5_1, Q8TDM6
GORASP1, Q9BQQ3 = biological target: GORASP1, Q9BQQ3
SCRIB_2, Q14160 = biological target: SCRIB_2, Q14160
GRID2IP_1, A4D2P6 = biological target: GRID2IP_1, A4D2P6
Inadl_6, Q8NI35 = biological target: Inadl_6, Q8NI35
CASK, O14936 = biological target: CASK, O14936
HTRA2, O43464 = biological target: HTRA2, O43464
SNTB1, Q13884 = biological target: T1, SNTB1, Q13884
T1 sequence (Q13884 107-205, limits assumed, looked up): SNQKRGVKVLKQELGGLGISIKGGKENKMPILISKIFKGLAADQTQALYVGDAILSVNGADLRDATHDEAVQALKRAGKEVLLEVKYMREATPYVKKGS

GRIP2_7, Q9C0E4 = biological target: GRIP2_7, Q9C0E4
Inadl_1, Q8NI35 = biological target: Inadl_1, Q8NI35
DFNB31_3, Q9P202 = biological target: T2, DFNB31_3, Q9P202
T2 sequence (Q9P202 811-907, limits assumed, looked up): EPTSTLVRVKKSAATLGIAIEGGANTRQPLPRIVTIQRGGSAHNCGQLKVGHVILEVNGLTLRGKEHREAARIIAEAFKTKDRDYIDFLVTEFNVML

LNX2_3, Q8N448 = biological target: T3, LNX2_3, Q8N448
T3 sequence (Q8N448 463-564, limits assumed, looked up): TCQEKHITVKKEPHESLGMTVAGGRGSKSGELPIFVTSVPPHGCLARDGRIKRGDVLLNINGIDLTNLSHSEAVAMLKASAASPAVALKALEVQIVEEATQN

MPP7, Q5T2T1 = biological target: T4, MPP7, Q5T2T1
T4 sequence (Q5T2T1 134-230, limits assumed, looked up): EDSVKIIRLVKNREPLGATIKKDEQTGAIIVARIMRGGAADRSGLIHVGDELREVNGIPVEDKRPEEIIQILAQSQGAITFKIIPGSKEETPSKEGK

NHERF4_1, Q86UT5-2 = biological target: NHERF4_1, Q86UT5-2
TJP1_3, Q07157 = biological target: TJP1_3, Q07157
LIN7C, Q9NUP9 = biological target: T5, LIN7C, Q9NUP9
T5 sequence (Q9NUP9 88-185, limits assumed, looked up): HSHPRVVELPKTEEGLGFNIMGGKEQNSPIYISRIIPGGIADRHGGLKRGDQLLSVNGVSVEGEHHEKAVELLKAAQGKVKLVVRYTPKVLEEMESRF

Inadl_2, Q8NI35 = biological target: Inadl_2, Q8NI35
GRID2IP_2, A4D2P6 = biological target: GRID2IP_2, A4D2P6
TJP1_2, Q07157 = biological target: TJP1_2, Q07157
TJP3_3, O95049 = biological target: T6, TJP3_3, O95049
T6 sequence (O95049 375-456, limits assumed, looked up): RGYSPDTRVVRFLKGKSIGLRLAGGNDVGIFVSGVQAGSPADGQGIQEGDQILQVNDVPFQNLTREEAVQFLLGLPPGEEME

MPDZ_10, O75970 = biological target: T7, MPDZ_10, O75970
T7 sequence (O75970 1624-1722, limits assumed, looked up): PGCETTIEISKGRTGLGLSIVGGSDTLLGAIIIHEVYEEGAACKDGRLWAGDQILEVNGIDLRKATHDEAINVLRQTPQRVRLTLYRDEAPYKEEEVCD

DFNB31_2, Q9P202 = biological target: T8, DFNB31_2, Q9P202
T8 sequence (Q9P202 274-371, limits assumed, looked up): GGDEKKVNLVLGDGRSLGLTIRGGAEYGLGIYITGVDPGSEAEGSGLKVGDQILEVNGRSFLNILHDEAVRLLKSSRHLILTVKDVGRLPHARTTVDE

GRIP1_7, Q9Y3R0 = biological target: T9, GRIP1_7, Q9Y3R0
T9 sequence (Q9Y3R0 999-1096, limits assumed, looked up): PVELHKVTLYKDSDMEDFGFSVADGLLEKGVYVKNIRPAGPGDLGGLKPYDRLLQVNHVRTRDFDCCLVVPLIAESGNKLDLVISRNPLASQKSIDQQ

[1] = plain residues with an end cap or a label only (N-terminal biotin on a linker: ttds)
[2] = plain residues with an end cap or a label only (N-terminal biotin on a linker: ahx)

Sequence of DLG5_1, Q8TDM6 (Q8TDM6 617-713): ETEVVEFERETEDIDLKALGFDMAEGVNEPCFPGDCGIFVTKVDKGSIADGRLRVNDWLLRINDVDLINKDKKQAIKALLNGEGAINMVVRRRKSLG
Sequence of HTRA2, O43464 (O43464 355-458): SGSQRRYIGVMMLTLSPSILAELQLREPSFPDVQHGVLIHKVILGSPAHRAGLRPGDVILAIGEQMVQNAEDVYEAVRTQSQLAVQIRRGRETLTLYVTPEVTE
Sequence of Inadl_2, Q8NI35 (Q8NI35 238-335): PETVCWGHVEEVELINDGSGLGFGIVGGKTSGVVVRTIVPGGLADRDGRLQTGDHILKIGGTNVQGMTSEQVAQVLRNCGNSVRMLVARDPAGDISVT
Sequence of Inadl_10, Q8NI35 (Q8NI35 1673-1763): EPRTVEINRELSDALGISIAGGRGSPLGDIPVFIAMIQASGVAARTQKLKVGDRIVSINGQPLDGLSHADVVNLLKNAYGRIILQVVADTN
Sequence of TJP1_3, Q07157 (Q07157 416-512): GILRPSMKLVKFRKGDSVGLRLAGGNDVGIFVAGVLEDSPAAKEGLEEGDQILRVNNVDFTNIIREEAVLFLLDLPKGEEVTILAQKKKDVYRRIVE
Sequence of SCRIB_2, Q14160 (Q14160 857-960): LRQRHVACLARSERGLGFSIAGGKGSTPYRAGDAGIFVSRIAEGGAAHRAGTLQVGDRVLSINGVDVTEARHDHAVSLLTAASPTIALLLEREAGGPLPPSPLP
Sequence of GRID2IP_1, A4D2P6 (A4D2P6 1-87): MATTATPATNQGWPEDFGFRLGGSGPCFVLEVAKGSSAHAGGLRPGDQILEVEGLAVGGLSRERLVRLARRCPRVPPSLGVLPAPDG
Sequence of GRID2IP_2, A4D2P6 (A4D2P6 272-370): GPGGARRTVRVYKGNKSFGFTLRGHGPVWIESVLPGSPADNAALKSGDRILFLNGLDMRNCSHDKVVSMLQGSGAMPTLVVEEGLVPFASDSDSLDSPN
Sequence of TJP1_2, Q07157 (Q07157 181-274): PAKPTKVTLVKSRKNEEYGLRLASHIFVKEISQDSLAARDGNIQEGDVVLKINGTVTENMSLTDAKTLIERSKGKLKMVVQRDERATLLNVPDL
Sequence of NHERF4_1, Q86UT5-2 (Q86UT5 other isoform, or with tags, fused parts or gaps): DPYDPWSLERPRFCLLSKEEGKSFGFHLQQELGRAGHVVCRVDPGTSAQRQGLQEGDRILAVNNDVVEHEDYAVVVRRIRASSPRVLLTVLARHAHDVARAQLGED
Sequence of GRIP2_5, Q9C0E4 (Q9C0E4 544-642): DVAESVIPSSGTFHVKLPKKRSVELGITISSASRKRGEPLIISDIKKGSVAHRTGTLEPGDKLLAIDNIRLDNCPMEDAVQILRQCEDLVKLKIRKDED
Sequence of Inadl_1, Q8NI35 (Q8NI35 113-229): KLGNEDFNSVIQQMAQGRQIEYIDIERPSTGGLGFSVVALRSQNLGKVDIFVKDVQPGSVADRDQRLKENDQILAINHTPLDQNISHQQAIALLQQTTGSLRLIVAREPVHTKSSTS
Sequence of MAGI3_2, Q5TCQ9 (Q5TCQ9 398-503): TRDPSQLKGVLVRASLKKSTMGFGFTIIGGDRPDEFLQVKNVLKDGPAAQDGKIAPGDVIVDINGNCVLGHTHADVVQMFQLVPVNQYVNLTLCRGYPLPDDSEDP
Sequence of Inadl_6, Q8NI35 (Q8NI35 1058-1167): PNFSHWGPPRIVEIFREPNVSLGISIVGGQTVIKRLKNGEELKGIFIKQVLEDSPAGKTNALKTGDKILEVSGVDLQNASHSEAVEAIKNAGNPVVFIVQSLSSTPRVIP
Sequence of CASK, O14936 (O14936 487-570): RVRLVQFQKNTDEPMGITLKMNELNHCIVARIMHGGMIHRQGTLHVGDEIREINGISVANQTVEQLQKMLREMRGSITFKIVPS
Sequence of GORASP1, Q9BQQ3 (Q9BQQ3 1-208): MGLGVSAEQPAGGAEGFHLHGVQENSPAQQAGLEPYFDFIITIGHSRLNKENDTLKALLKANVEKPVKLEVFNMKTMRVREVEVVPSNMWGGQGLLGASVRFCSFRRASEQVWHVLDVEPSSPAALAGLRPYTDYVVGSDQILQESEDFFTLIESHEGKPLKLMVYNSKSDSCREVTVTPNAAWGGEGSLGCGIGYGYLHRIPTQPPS
Sequence of LNX1_1, Q8TBB1 (Q8TBB1 261-371): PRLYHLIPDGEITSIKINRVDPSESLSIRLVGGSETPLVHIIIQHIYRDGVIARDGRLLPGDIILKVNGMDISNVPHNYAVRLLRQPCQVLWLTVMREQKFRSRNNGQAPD
Sequence of PICK1, Q9NRD5 (Q9NRD5 17-115): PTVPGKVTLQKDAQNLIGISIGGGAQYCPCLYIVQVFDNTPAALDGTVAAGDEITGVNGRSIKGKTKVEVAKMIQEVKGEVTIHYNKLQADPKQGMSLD
Sequence of GRIP2_7, Q9C0E4 (Q9C0E4 934-1023): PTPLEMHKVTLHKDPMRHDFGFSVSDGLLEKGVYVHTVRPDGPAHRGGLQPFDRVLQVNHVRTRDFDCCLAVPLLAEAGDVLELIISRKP

FVETQHQTQV [FAT3, Q8TDW7]
pKd (Inadl_10, Q8NI35; [1]): 3.5
pKd (GRIP2_5, Q9C0E4; [1]): below the threshold
pKd (LNX1_1, Q8TBB1; [1]): below the threshold
pKd (MAGI3_2, Q5TCQ9; [1]): 4.57
pKd (PICK1, Q9NRD5; [1]): below the threshold
pKd (DLG5_1, Q8TDM6; [1]): below the threshold
pKd (GORASP1, Q9BQQ3; [1]): below the threshold
pKd (SCRIB_2, Q14160; [1]): 4.15
pKd (GRID2IP_1, A4D2P6; [1]): below the threshold
pKd (Inadl_6, Q8NI35; [1]): below the threshold
pKd (CASK, O14936; [1]): below the threshold
pKd (HTRA2, O43464; [1]): below the threshold
pKd (SNTB1, Q13884; [1]): 4.19
pKd (GRIP2_7, Q9C0E4; [1]): 3.82
pKd (Inadl_1, Q8NI35; [1]): below the threshold
pKd (DFNB31_3, Q9P202; [1]): below the threshold
pKd (LNX2_3, Q8N448; [1]): below the threshold
pKd (MPP7, Q5T2T1; [1]): below the threshold
pKd (NHERF4_1, Q86UT5-2; [1]): below the threshold
pKd (TJP1_3, Q07157; [1]): below the threshold
pKd (LIN7C, Q9NUP9; [1]): below the threshold
pKd (Inadl_2, Q8NI35; [1]): 3.56
pKd (GRID2IP_2, A4D2P6; [1]): 3.59
pKd (TJP1_2, Q07157; [1]): below the threshold
pKd (TJP3_3, O95049; [1]): below the threshold
pKd (MPDZ_10, O75970; [1]): below the threshold
pKd (DFNB31_2, Q9P202; [1]): below the threshold
pKd (GRIP1_7, Q9Y3R0; [1]): below the threshold

PKMKLNETSF [SHKBP1, Q8TBC3]
pKd (Inadl_10, Q8NI35; [2]): below the threshold
pKd (GRIP2_5, Q9C0E4; [2]): below the threshold
pKd (LNX1_1, Q8TBB1; [2]): below the threshold
pKd (MAGI3_2, Q5TCQ9; [2]): below the threshold
pKd (PICK1, Q9NRD5; [2]): below the threshold
pKd (DLG5_1, Q8TDM6; [2]): below the threshold
pKd (GORASP1, Q9BQQ3; [2]): below the threshold
pKd (SCRIB_2, Q14160; [2]): below the threshold
pKd (GRID2IP_1, A4D2P6; [2]): below the threshold
pKd (Inadl_6, Q8NI35; [2]): below the threshold
pKd (CASK, O14936; [2]): below the threshold
pKd (HTRA2, O43464; [2]): below the threshold
pKd (SNTB1, Q13884; [2]): below the threshold
pKd (GRIP2_7, Q9C0E4; [2]): below the threshold
pKd (Inadl_1, Q8NI35; [2]): below the threshold
pKd (DFNB31_3, Q9P202; [2]): below the threshold
pKd (LNX2_3, Q8N448; [2]): below the threshold
pKd (MPP7, Q5T2T1; [2]): below the threshold
pKd (NHERF4_1, Q86UT5-2; [2]): 3.73
pKd (TJP1_3, Q07157; [2]): below the threshold
pKd (LIN7C, Q9NUP9; [2]): 3.49
pKd (Inadl_2, Q8NI35; [2]): below the threshold
pKd (GRID2IP_2, A4D2P6; [2]): below the threshold
pKd (TJP1_2, Q07157; [2]): below the threshold
pKd (TJP3_3, O95049; [2]): below the threshold
pKd (MPDZ_10, O75970; [2]): below the threshold
pKd (DFNB31_2, Q9P202; [2]): below the threshold
pKd (GRIP1_7, Q9Y3R0; [2]): below the threshold

SRSRRRETAL [HPV33-E6, P06427]
pKd (Inadl_10, Q8NI35; [1]): below the threshold
pKd (GRIP2_5, Q9C0E4; [1]): below the threshold
pKd (LNX1_1, Q8TBB1; [1]): below the threshold
pKd (MAGI3_2, Q5TCQ9; [1]): 5.39
pKd (PICK1, Q9NRD5; [1]): below the threshold
pKd (DLG5_1, Q8TDM6; [1]): below the threshold
pKd (GORASP1, Q9BQQ3; [1]): below the threshold
pKd (SCRIB_2, Q14160; [1]): 4.61
pKd (GRID2IP_1, A4D2P6; [1]): below the threshold
pKd (Inadl_6, Q8NI35; [1]): 3.7
pKd (CASK, O14936; [1]): below the threshold
pKd (HTRA2, O43464; [1]): 3.46
pKd (SNTB1, Q13884; [1]): 5.05
pKd (GRIP2_7, Q9C0E4; [1]): 3.42
pKd (Inadl_1, Q8NI35; [1]): below the threshold
pKd (DFNB31_3, Q9P202; [1]): below the threshold
pKd (LNX2_3, Q8N448; [1]): below the threshold
pKd (MPP7, Q5T2T1; [1]): below the threshold
pKd (NHERF4_1, Q86UT5-2; [1]): 4.42
pKd (TJP1_3, Q07157; [1]): below the threshold
pKd (LIN7C, Q9NUP9; [1]): 4.14
pKd (Inadl_2, Q8NI35; [1]): below the threshold
pKd (GRID2IP_2, A4D2P6; [1]): 4.18
pKd (TJP1_2, Q07157; [1]): below the threshold
pKd (TJP3_3, O95049; [1]): below the threshold
pKd (MPDZ_10, O75970; [1]): below the threshold
pKd (DFNB31_2, Q9P202; [1]): 3.55
pKd (GRIP1_7, Q9Y3R0; [1]): below the threshold

SHSSKGETAV [FZD7, O75084]
pKd (Inadl_10, Q8NI35; [1]): below the threshold
pKd (GRIP2_5, Q9C0E4; [1]): below the threshold
pKd (LNX1_1, Q8TBB1; [1]): below the threshold
pKd (MAGI3_2, Q5TCQ9; [1]): 4.93
pKd (PICK1, Q9NRD5; [1]): below the threshold
pKd (DLG5_1, Q8TDM6; [1]): below the threshold
pKd (GORASP1, Q9BQQ3; [1]): 3.48
pKd (SCRIB_2, Q14160; [1]): 4.58
pKd (GRID2IP_1, A4D2P6; [1]): below the threshold
pKd (Inadl_6, Q8NI35; [1]): below the threshold
pKd (CASK, O14936; [1]): below the threshold
pKd (HTRA2, O43464; [1]): below the threshold
pKd (SNTB1, Q13884; [1]): 4.49
pKd (GRIP2_7, Q9C0E4; [1]): below the threshold
pKd (Inadl_1, Q8NI35; [1]): below the threshold
pKd (DFNB31_3, Q9P202; [1]): below the threshold
pKd (LNX2_3, Q8N448; [1]): below the threshold
pKd (MPP7, Q5T2T1; [1]): below the threshold
pKd (NHERF4_1, Q86UT5-2; [1]): below the threshold
pKd (TJP1_3, Q07157; [1]): below the threshold
pKd (LIN7C, Q9NUP9; [1]): 4.03
pKd (Inadl_2, Q8NI35; [1]): below the threshold
pKd (GRID2IP_2, A4D2P6; [1]): below the threshold
pKd (TJP1_2, Q07157; [1]): below the threshold
pKd (TJP3_3, O95049; [1]): below the threshold
pKd (MPDZ_10, O75970; [1]): below the threshold
pKd (DFNB31_2, Q9P202; [1]): below the threshold
pKd (GRIP1_7, Q9Y3R0; [1]): below the threshold

YNSFLSVTTV [PDZRN3, Q9UPQ7]
pKd (Inadl_10, Q8NI35; [2]): 3.7
pKd (GRIP2_5, Q9C0E4; [2]): below the threshold
pKd (LNX1_1, Q8TBB1; [2]): 3.8
pKd (MAGI3_2, Q5TCQ9; [2]): 4.27
pKd (PICK1, Q9NRD5; [2]): below the threshold
pKd (DLG5_1, Q8TDM6; [2]): below the threshold
pKd (GORASP1, Q9BQQ3; [2]): 3.8
pKd (SCRIB_2, Q14160; [2]): 3.69
pKd (GRID2IP_1, A4D2P6; [2]): below the threshold
pKd (Inadl_6, Q8NI35; [2]): below the threshold
pKd (CASK, O14936; [2]): below the threshold
pKd (HTRA2, O43464; [2]): 3.48
pKd (SNTB1, Q13884; [2]): 3.72
pKd (GRIP2_7, Q9C0E4; [2]): below the threshold
pKd (Inadl_1, Q8NI35; [2]): 3.82
pKd (DFNB31_3, Q9P202; [2]): 3.51
pKd (LNX2_3, Q8N448; [2]): below the threshold
pKd (MPP7, Q5T2T1; [2]): below the threshold
pKd (NHERF4_1, Q86UT5-2; [2]): below the threshold
pKd (TJP1_3, Q07157; [2]): below the threshold
pKd (LIN7C, Q9NUP9; [2]): 3.47
pKd (Inadl_2, Q8NI35; [2]): below the threshold
pKd (GRID2IP_2, A4D2P6; [2]): 3.57
pKd (TJP1_2, Q07157; [2]): below the threshold
pKd (TJP3_3, O95049; [2]): below the threshold
pKd (MPDZ_10, O75970; [2]): 3.96
pKd (DFNB31_2, Q9P202; [2]): below the threshold
pKd (GRIP1_7, Q9Y3R0; [2]): below the threshold
